From patent publication US20250109207A1

Experiments:
[1] = target: Human FcγRIIa (H131) (human) (UniProt P12318); assay: SPR (Biacore); His-tagged FcγR captured, antibody injected; kinetic fit or steady state
Human FcγRIIb (human) [2] = target: Human FcγRIIb (human) (UniProt P31994); assay: as above
[3] = target: Human FcγRIIa (R131) (human) (UniProt P12318); assay: as above
[4] = target: Human FcγRIIa (H131) (human) (UniProt P12318); assay: SPR (Biacore); His-tagged FcγR captured on anti-penta-His chip, antibody injected
[5] = target: Human FcγRIIIa (V176) (human) (UniProt P08637); assay: as above
Chain of Human FcγRIIIa (V176) (human) (P08637 17-208 F176V limits assumed): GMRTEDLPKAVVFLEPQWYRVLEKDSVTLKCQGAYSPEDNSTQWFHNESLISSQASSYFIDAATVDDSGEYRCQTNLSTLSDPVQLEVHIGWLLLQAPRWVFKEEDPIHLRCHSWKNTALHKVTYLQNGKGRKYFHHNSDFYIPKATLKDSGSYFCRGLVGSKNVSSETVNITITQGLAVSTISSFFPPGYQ

Human FcγRIIb (human) [6] = target: Human FcγRIIb (human) (UniProt P31994); assay: as above
[7] = target: Human FcγRIIa (R131) (human) (UniProt P12318); assay: as above

Chain of Human FcγRIIb (human) (P31994 46-217 limits assumed): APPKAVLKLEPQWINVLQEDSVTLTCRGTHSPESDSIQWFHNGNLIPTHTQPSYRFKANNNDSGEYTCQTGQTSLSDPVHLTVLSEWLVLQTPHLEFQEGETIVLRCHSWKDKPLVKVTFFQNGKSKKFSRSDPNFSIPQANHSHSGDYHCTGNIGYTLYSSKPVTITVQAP
Chain of Human FcγRIIa (R131) (human) (P12318 36-218 H167R limits assumed): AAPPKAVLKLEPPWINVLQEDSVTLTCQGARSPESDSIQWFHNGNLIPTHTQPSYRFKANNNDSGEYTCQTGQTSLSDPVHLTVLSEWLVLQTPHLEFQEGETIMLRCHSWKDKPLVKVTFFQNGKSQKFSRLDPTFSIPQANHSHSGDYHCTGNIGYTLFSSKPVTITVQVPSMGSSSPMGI
Chain of Human FcγRIIa (H131) (human) (P12318 36-218 limits assumed): as the sequence (P12318 36-218 H167R limits assumed) above, with R132H counted along it

Kd [1]: 1.61 µM | Kd (Human FcγRIIb (human) [2]): 12.3 µM | Kd [3]: 1.32 µM | binding signal (RU) [4]: 419 RU | binding signal (RU) [5]: 34 RU | binding signal (RU) (Human FcγRIIb (human) [6]): 226 RU | binding signal (RU) [7]: 340 RU
B1: mAb3, IgG4s (antibody, part only; not given: variable domains and light chain, not shown: another chain or arm of the molecule)
Fc: ESKYGPPCPPCPAPPVAGPSVFLFPPKPKDTLMISRTPEVTCVVVDVSQEDPEVQFNWYVDGVEVHNAKTKPREEQFNSTYRVVSVLTVLHQDWLNGKEYKCKVSNKGLPSSIEKTISKAKGQPREPQVYTLPPSQEEMTKNQVSLTCLVKGFYPSDIAVEWESNGQPENNYKTTPPVLDSDGSFFLYSRLTVDKSRWQEGNVFSCSVMHEALHNHYTQKSLSLSLGK
